The text below walks through data of patent publication US20240132578A1.

What all share (assay): cell-based or functional assay
The target of assay [1] is HIV-1 Env of pseudovirus JRCSF (HIV-1) (UniProt P20871).
The target in assay [2] is HIV-1 Env of pseudovirus MGRM-C-26 (HIV-1).
Assay [3] has as its target HIV-1 Env of pseudovirus 92TH021 (HIV-1).

Where “and” joins values, the source holds several entries; their conditions need not be identical. Equal entries are not always repeated.

B1: PGT-135 (B cell culture wells 5343_B8 and 5344_E16) (antibody, V domains shown)
VH: QLQMQESGPGLVKPSETLSLSCTVSGDSIRGGEWGDKDYHWGWVRHSAGKGLEWIGSIHWRGTTHYKESLRRRVSMSIDTSRNWFSLRLASVTAADTAVYFCARHRHHDVFMLVPIAGWFDVWGPGVQVTVSS
VL: EIVMTQSPDTLSVSPGETVTLSCRASQNINKNLAWYQYKPGQSPRLVIFETYSKIAAFPARFVASGSGTEFTLTINNMQSEDVAVYYCQQYEEWPRTFGQGTKVDIK
Take B1: the Primary Neutralization Index (B cell culture supernatant) was 1.8 and 1.5 in assay [1]; 6.5 and 3.6 in assay [2].

B2: PGT-125 (B cell culture well 5123_A6) (antibody, V domains shown)
VH: QSQLQESGPRLVEASETLSLTCNVSGESTGACTYFWGWVRQAPGKGLEWIGSLSHCQSFWGSGWTFHNPSLKSRLTISLDTPKNQVFLKLTSLTAADTATYYCARFDGEVLVYNHWPKPAWVDLWGRGIPVTVSS
VL: QSALTQPPSASGSPGQSITISCNGTATNFVSWYQQFPDKAPKLIIFGVDKRPPGVPDRFSGSRSGTTASLTVSRLQTDDEAVYYCGSLVGNWDVIFGGGTTLTVL
Regarding B2, the Polyclonal Transfectant Neutralization Index in assay [1] stood at 119; in assay [2], 88.3; in assay [3], 50.6. Further, the Primary Neutralization Index (B cell culture supernatant) is 1730 in assay [1], 512 in assay [2] and 133 in assay [3].

B3: PGT-126 (B cell culture well 5141_B17) (antibody, V domains shown)
VH: QPQLQESGPGLVEASETLSLTCTVSGDSTAACDYFWGWVRQPPGKGLEWIGGLSHCAGYYNTGWTYHNPSLKSRLTISLDTPKNQVFLKLNSVTAADTAIYYCARFDGEVLVYHDWPKPAWVDLWGRGTLVTVSS
VL: QSALTQPPSASGSPGQSISISCTGTSNRFVSWYQQHPGKAPKLVIYGVNKRPSGVPDRFSGSKSGNTASLTVSGLQTDDEAVYYCSSLVGNWDVIFGGGTKLTVL
With B3, the Polyclonal Transfectant Neutralization Index in assay [1] came to 102; in assay [2], 102; in assay [3], 2.74. Further, the results for the Primary Neutralization Index (B cell culture supernatant) in assay [1], in assay [2] and in assay [3] were 1410, 654 and 2.3, respectively.

B4: PGT-128 (B cell culture well 5114_A19) (antibody, V domains shown)
VH: QPQLQESGPTLVEASETLSLTCAVSGDSTAACNSFWGWVRQPPGKGLEWVGSLSHCASYWNRGWTYHNPSLKSRLTLALDTPKNLVFLKLNSVTAADTATYYCARFGGEVLRYTDWPKPAWVDLWGRGTLVTVSS
VL: QSALTQPPSASGSPGQSITISCTGTSNNFVSWYQQHAGKAPKLVIYDVNKRPSGVPDRFSGSKSGNTASLTVSGLQTDDEAVYYCGSLVGNWDVIFGGGTKLTVL
As for B4, the Polyclonal Transfectant Neutralization Index in assay [1] worked out at 136; in assay [2], 32.2; in assay [3], 10. Also, the Primary Neutralization Index (B cell culture supernatant) in assay [1] turned out to be 77.5; in assay [2] it was 17.1; in assay [3], 6.6.

B5: PGT-127 (B cell culture well 5145_B14) (antibody, V domains shown)
VH: QPQLQESGPGLVEASETLSLTCTVSGDSTGRCNYFWGWVRQPPGKGLEWIGSLSHCRSYYNTDWTYHNPSLKSRLTISLDTPKNQVFLRLTSVTAADTATYYCARFGGEVLVYRDWPKPAWVDLWGRGTLVVTVS
VL: QSALTQPPSASGSPGQSITISCTGTSNNFVSWYQQYPGKAPKLVIYEVNKRPSGVPDRFSGSKSGSTASLTVSGLQADDEGVYYCSSLVGNWDVIFGGGTKLTVL
For the molecule B5, the Polyclonal Transfectant Neutralization Index in assay [1] amounted to 1.61; in assay [2], 2.62; in assay [3], 0.94. Also, the values for the Primary Neutralization Index (B cell culture supernatant) in assay [1], in assay [2] and in assay [3] were 31.1, 86.9 and 1, respectively.
